The values below come from patent US6277383A, “Ryegrass pollen allergen” (University of Melbourne, priority 1995, dated 2001).

For this assay, the system named is MAbs 3.2, 12.3, 21.3 and 40.1. Description: Recognition of cloned allergen 12R by MAbs (FIG. 1a). Type of assay: binding. Particulars: MAbs 3.2, 12.3, 21.3, 40.1. Here is the method: Poly (A+) mRNA isolated from mature rye grass pollen by the phenol method (Herrin and Michaels, (1984) Plant Mol. Biol. Rep., 2:24-28) was used to construct a cDNA library in the vector lambda-gt 11. The library was then screened with antibody probes to detect sequences expressing Group I proteins. E. coli Y1090 transfected with 3×10^4 recombinant phages were plated and incubated at 42° C. for 3 h. The plates were overlaid with a dry 132 mm nitrocellulose (NC) filter previously soaked in 10 mm IPTG and transferred to 37° C. After incubation for 3 h the filters were carefully peeled off and incubated in 20 ml per filter of MTBS (10% w/v non-fat milk powder, 50 mm Tris-HCI, pH 7.6, 150 mM Nacl) for 30 min. at room temperature. A second set of NC filters was placed on phage plates and after incubating for 3 h were treated as above. Both sets of NC filters were tested for binding of MAb 40.1 to plaques by the method described in Huynh et al. (1985) In: DNA Cloning, a practical approach, Glover, D. M. (ed.) Vol. 1, pp. 49-78, IRL Press, Oxford, England. The antibody positive plaques were picked, purified, then replated and tested for binding to probes. The positive clones were plaque-purified and tested for IgE binding using sera from grass pollen-allergic subjects. Eighteen clones were selected as encoding proteins recognized by both Lol p I-specific MAbs and IgE antibodies (Table 1). […]

B1: Clone 12: 1.2 kb cDNA clone lambda-12R; its expressed protein is designated Lol p Ib.1 (protein)
chain: MAVQKYTVALFLAVALVAGPAASYAADAGYTPAAAATPATPAATPAAAGGKATTDEQKLLEDVNAGFKAAVAAAANAPPADKFKIFEAAFSESSKGLLATSAAKAPGLIPKLDTAYDVAYKAAEGATPEAKYDAFVTALTEALRVIAGALEVHAVKPATEEVPAAKIPTGELQIVDKIDAAFKIAATAANAAPTNDKFTVFESAFNKALNECTGGAYETYKFIPSLEAAVKQAYAATVAAAPEVKYAVFEAALTKAITAMTQAQKAGKPAAAAATGAATVATGAATAAAGAATAAAGGYKA
Consider B1, for which the “Recognition by all four MAbs used in this study” value is reported as “recognized”.
